# Reference: patent publication US20220185874A1 (ROCHE DIAGNOSTICS OPERATIONS, published 2022)
# Biological target: T1, human cardiac troponin T (human, UniProt P45379 2-298)
# T1 construct: Analyte in SPR was 'Recombinant human TnT (Roche, 37 kDa)'; also called cTnT; TnT
# Assay: SPR (Biacore 8K), 37 C, Fab captured from E. coli lysate by anti-mouse F(ab')2, recombinant human TnT as analyte
# Protocol: Detailed kinetic investigations were performed at 37° C. on a GE Healthcare 8k instrument. A Biacore CM-5 series S sensor was mounted into the instrument and was preconditioned according to the manufacturer's instructions. The system buffer was HBS-ET (10 mM HEPES (pH 7.4), 150 mM NaCl, 1 mM EDTA, 0.05% (w/v) Tween® 20). The sample buffer was the system buffer supplemented with 1 mg/ml CMD (Carboxymethyldextran, Fluka). In one embodiment an anti-murine Fab fragment capture system was established on the CM5 biosensor. The rabbit polyclonal pAb anti M-IgG, F(ab′)₂ fragment (Cat. No. 315-005-047, Jackson Immuno Research) was immobilized according to the manufacturer's instructions using NHS/EDC chemistry. At 5 μl/min, 30 μg/ml RAMF(ab′)₂ in 10 mM sodium acetate buffer (pH 5.0) were immobilized at 10.000 RU on each flow cell. The sensor was subsequently saturated with 1 M ethanolamine pH 8.5. […] Recombinant human TnT (Roche, 37 kDa) was diluted in sample buffer at 30 nM and a concentration series was produced with 0 nM, 30 nM, 10 nM, 3.3 nM, 1.1 nM, 0.37 nM TnT concentration. The analyte concentration series were injected at 80 μl/min for 3 min association phase and the dissociation phase was monitored for 5 min. At the end of the analyte association phase a report point, “binding late” (BL) in response units (RU) was monitored. After each cycle of kinetic rates determination, the capture system was regenerated by a 15 seconds injection of 10-fold concentrated HBS-EP buffer followed by two 1 min injections of 100 mM HCl at 20 μl/min.
Binder,Kd,koff,kon,t½ [min] (complex half-life)
"mAb<TnT>rM-11-7 Fab A102D (Fab, V domains shown, Murine CH1 and CL, E. coli periplasmic lysate) VH: QIQLVQSGPELKKPGETVKISCKASGYTFTDFSMHWVKQAPGKGLKWMGWINTETGEPTYADDFKGRFAFSLETSATTAYLQINNLKNEDTATYFCVRSHDMDYWGQGTSVTVSS VL: not shown",15 nM,0.029 s⁻¹,1.9e+06 M⁻¹ s⁻¹,0.4 min
"mAb<TnT>rM-11-7 Fab A102E (Fab, V domains shown, Murine CH1 and CL, E. coli periplasmic lysate) VH: QIQLVQSGPELKKPGETVKISCKASGYTFTDFSMHWVKQAPGKGLKWMGWINTETGEPTYADDFKGRFAFSLETSATTAYLQINNLKNEDTATYFCVRSHEMDYWGQGTSVTVSS VL: not shown",9 nM,0.0098 s⁻¹,1.1e+06 M⁻¹ s⁻¹,1 min
"mAb<TnT>rM-11-7 Fab A102L (Fab, V domains shown, Murine CH1 and CL, E. coli periplasmic lysate) VH: QIQLVQSGPELKKPGETVKISCKASGYTFTDFSMHWVKQAPGKGLKWMGWINTETGEPTYADDFKGRFAFSLETSATTAYLQINNLKNEDTATYFCVRSHLMDYWGQGTSVTVSS VL: not shown",13 nM,0.009 s⁻¹,710000 M⁻¹ s⁻¹,1 min
"mAb<TnT>rM-11-7 Fab A102F (Fab, V domains shown, Murine CH1 and CL, E. coli periplasmic lysate) VH: QIQLVQSGPELKKPGETVKISCKASGYTFTDFSMHWVKQAPGKGLKWMGWINTETGEPTYADDFKGRFAFSLETSATTAYLQINNLKNEDTATYFCVRSHFMDYWGQGTSVTVSS VL: not shown",1 nM,0.0012 s⁻¹,900000 M⁻¹ s⁻¹,10 min
"mAb<TnT>rM-11-7 Fab A102I (Fab, V domains shown, Murine CH1 and CL, E. coli periplasmic lysate) VH: QIQLVQSGPELKKPGETVKISCKASGYTFTDFSMHWVKQAPGKGLKWMGWINTETGEPTYADDFKGRFAFSLETSATTAYLQINNLKNEDTATYFCVRSHIMDYWGQGTSVTVSS VL: not shown",18 nM,0.032 s⁻¹,1.7e+06 M⁻¹ s⁻¹,0.4 min
"mAb<TnT>rM-11-7 Fab A102H (Fab, V domains shown, Murine CH1 and CL, E. coli periplasmic lysate) VH: QIQLVQSGPELKKPGETVKISCKASGYTFTDFSMHWVKQAPGKGLKWMGWINTETGEPTYADDFKGRFAFSLETSATTAYLQINNLKNEDTATYFCVRSHHMDYWGQGTSVTVSS VL: not shown",8 nM,0.0069 s⁻¹,830000 M⁻¹ s⁻¹,2 min

# More lines, now with the values ahead:
Kd,koff,kon,t½ [min] (complex half-life),Binder
5 nM,0.0033 s⁻¹,710000 M⁻¹ s⁻¹,3 min,"mAb<TnT>rM-11-7 Fab A102Y (Fab, V domains shown, Murine CH1 and CL, E. coli periplasmic lysate) VH: QIQLVQSGPELKKPGETVKISCKASGYTFTDFSMHWVKQAPGKGLKWMGWINTETGEPTYADDFKGRFAFSLETSATTAYLQINNLKNEDTATYFCVRSHYMDYWGQGTSVTVSS VL: not shown"
< 0.01 nM,< 1e-05 s⁻¹,1.1e+06 M⁻¹ s⁻¹,> 1160 min,"mAb<TnT>rM-11-7 Fab A102W (Fab, V domains shown, Murine CH1 and CL, E. coli periplasmic lysate) VH: QIQLVQSGPELKKPGETVKISCKASGYTFTDFSMHWVKQAPGKGLKWMGWINTETGEPTYADDFKGRFAFSLETSATTAYLQINNLKNEDTATYFCVRSHWMDYWGQGTSVTVSS VL: not shown"
2500 nM,0.042 s⁻¹,16000 M⁻¹ s⁻¹,0.3 min,"mAb<TnT>rM-11-7 Fab A102R (Fab, V domains shown, Murine CH1 and CL, E. coli periplasmic lysate) VH: QIQLVQSGPELKKPGETVKISCKASGYTFTDFSMHWVKQAPGKGLKWMGWINTETGEPTYADDFKGRFAFSLETSATTAYLQINNLKNEDTATYFCVRSHRMDYWGQGTSVTVSS VL: not shown"
17 nM,0.056 s⁻¹,3.3e+06 M⁻¹ s⁻¹,0.2 min,"mAb<TnT>rM-11-7 Fab A102N (Fab, V domains shown, Murine CH1 and CL, E. coli periplasmic lysate) VH: QIQLVQSGPELKKPGETVKISCKASGYTFTDFSMHWVKQAPGKGLKWMGWINTETGEPTYADDFKGRFAFSLETSATTAYLQINNLKNEDTATYFCVRSHNMDYWGQGTSVTVSS VL: not shown"

# Biological target: T1, human cardiac troponin T
# Assay: Elecsys ECL sandwich immunoassay, calibrator Cal1 (recTnT), reference: biotinylated wild type Fab of MAB11-7
# Protocol: (§1) The antibody Fab fragment mAb<TnT>rM-11-7(A102W)-Fab(IgG1)-Qtag was produced as a biotinylated Fab fragment, i.e., mAb<TnT>rM-11-7(A102W)-Fab(IgG1)-Qtag-Bi according to Example 7 and was tested in a sandwich immuno assay (see FIG. 6). The Fab fragment mAb<TnT>rM-11-7(A102W)-Fab(IgG1)-Qtag-Bi was compared to the biotinylated wild type Fab-fragment of MAB11-7 (i.e. comprising a CDR3 of SEQ ID NO: 16) as comprised in the commercially available Roche Elecsys® assay, catalogue number 05092744190 (Roche Diagnostics GmbH, Mannheim, Germany). These biotinylated reagents were used as reagent 1 (RI) in the corresponding assay protocol. The ruthenylated detection antibody was the one comprised in the Roche Elecsys® assay, catalogue number 05092744190 (Roche Diagnostics GmbH, Mannheim, Germany). The ruthenylated detection antibody corresponds to the Elecsys® R2 reagent.
# (§2) The assay follows assay protocol 2 of the cobas e analyzers, where sample, R1 and R2 are mixed in a first step for 9 min incubation, then the streptavidin coated magnetic beads are added in a second step for another 9 min incubation. […]
# (§3) Elecsys® streptavidin-coated magnetic beads were always used in combination with one of the RI and R2 reagent bottles. Samples measured included sample diluent (Diluent Universal=buffer blank,) and the TnT Elecsys® assay commercial calibrators (Call ([…] recTnT) and Cal2 ([…] recTnT)).
row,fold increase of Cal-1 signal against parental,Binder
1,1.7 fold,"mAb<TnT>rM-11-7(A102W)-Fab(IgG1)-Qtag-Bi (Fab, V domains shown, Murine Fab (IgG1) with a Qtag, produced in HEK FreeStyle 293-F cells, site-directed conjugated to biotin with Kutzneria albida transglutaminase; also called maturated biotinylated mAb<TnT>rM-11-7(A102W)-Fab) VH: QIQLVQSGPELKKPGETVKISCKASGYTFTDFSMHWVKQAPGKGLKWMGWINTETGEPTYADDFKGRFAFSLETSATTAYLQINNLKNEDTATYFCVRSHWMDYWGQGTSVTVSS VL: not shown"

# Biological target: T1, human cardiac troponin T
# Assay: Elecsys ECL sandwich immunoassay, biotinylated Fab as capture reagent R1, ruthenylated commercial detection antibody; reference: biotinylated wild type Fab of MAB11-7
# Protocol: as §1
# Measurements were performed on a Cobas E170 Module using the Troponin T hs assay protocol with a blank control (Diluent Universal, Id. 11732277122, Diluent Multi Assay, Id. 03609987170, Roche Diagnostics GmbH, Mannheim, Germany), Call and Cal2 from Troponin T hs CalSet (Id. 05092752190, Roche Diagnostics GmbH, Mannheim, Germany) using the Troponin T hs assay specifications. […]
row,fold increase in sensitivity (signal to noise) against parental,Binder
1,~2 fold,"mAb<TnT>rM-11-7(A102W)-Fab(IgG1)-Qtag-Bi (Fab, V domains shown, Murine Fab (IgG1) with a Qtag, produced in HEK FreeStyle 293-F cells, site-directed conjugated to biotin with Kutzneria albida transglutaminase; also called maturated biotinylated mAb<TnT>rM-11-7(A102W)-Fab) VH: QIQLVQSGPELKKPGETVKISCKASGYTFTDFSMHWVKQAPGKGLKWMGWINTETGEPTYADDFKGRFAFSLETSATTAYLQINNLKNEDTATYFCVRSHWMDYWGQGTSVTVSS VL: not shown"

# Biological target: T1, human cardiac troponin T
# Assay: Elecsys ECL sandwich immunoassay, calibrator Cal2 (recTnT), reference: biotinylated wild type Fab of MAB11-7
# Protocol: as §1, §2, §3
row,fold increase of Cal-2 signal against parental,Binder
1,1.8 fold,"mAb<TnT>rM-11-7(A102W)-Fab(IgG1)-Qtag-Bi (Fab, V domains shown, Murine Fab (IgG1) with a Qtag, produced in HEK FreeStyle 293-F cells, site-directed conjugated to biotin with Kutzneria albida transglutaminase; also called maturated biotinylated mAb<TnT>rM-11-7(A102W)-Fab) VH: QIQLVQSGPELKKPGETVKISCKASGYTFTDFSMHWVKQAPGKGLKWMGWINTETGEPTYADDFKGRFAFSLETSATTAYLQINNLKNEDTATYFCVRSHWMDYWGQGTSVTVSS VL: not shown"
